Assay results published in patent publication US10005838B2, “Milk fat globule epidermal growth factor 8 regulates fatty acid uptake” (REGENTS OF THE UNIVERSITY OF CALIFORNIA, priority 2013, dated 2018).

How the values were obtained:
FATP1 = experiment: Plasma membrane FATP1 expression in primary adipocytes; type: cell-based, mouse; details: Mfge8−/− adipocytes
Procedure: Following tissue preparation and SDS-PAGE, membranes were incubated with a polyclonal antibody against Akt (Cell Signaling Technology), or Rictor (Cell Signaling); Anti-PGC1 alpha antibody (abcam); a monoclonal antibody against Phospho-Akt Ser473 (Cell Signaling), Phospho-Rictor Thr1135 (Cell Signaling), GAPDH (Cell Signaling), or Mfge8 (R&D Systems). For evaluation of total AKT and total Rictor, membranes that been blotted for phospho-AKT and phospho-Rictor were stripped and reprobed. Plasma membrane and post-plasma membrane fractions were isolated as previously described (Nishiumi, S. & Ashida, H., Biosci Biotechnol Biochem 71, 2343-2346 (2007)).

PTEN = PTEN activity assay (conversion of PIP3 to PIP2) in freshly isolated antrum; type: biochemical, mouse; details: 10 μg/ml
Procedure: In FIG. 14A, the antral rings were treated for 15 min with PI3K inhibitor wortmannin (Wort.100 nm) followed by assessment of contractile force in response to MCh. N=3-4. ***P<0.0001. […] Western blot of antral tissue were treated for 30 minutes with or without rMfge8. […] Western blot of antrum were treated for 30 minutes with wortmannin (100 ng/ml) or Mfge8 and then with MCh for 15 minutes prior to quantifying active RhoA using a GST pull-down. […] PTEN activity assay measured the conversion of PIP3 to PIP2 in freshly isolated antrum with and without the rMfge8 or RGE construct (10 μg/ml) n=3-5. *P<0.05, **P<0.01, ***P<0.001.

3T3-L1 adipocytes = experiment: Fluorescent fatty acid uptake assay in 3T3-L1 adipocytes; type: cell-based, mouse
Procedure: Uptake of fatty acids by differentiated 3T3-L1 adipocytes or primary mouse adipocytes was assessed using a QBT Fatty Acid Uptake Kit (Molecular Devices). Cells were plated in triplicate in 96-well plates at a concentration of 25,000 cells per well in 100 μl of DMEM/10% FCS. Plates were centrifuged at 1000 rpm for 4 minutes and incubated at 37° Celsius for 4-5 hours. Cells were then serum deprived for 1 hour before treatment with recombinant proteins for 30 minutes followed by the addition of QBT Fatty Acid Uptake solution. […] Plates were incubated in a fluorescent plate reader at 37° Celsius and kinetic readings were acquired every 20 seconds for 30 minutes. Fluorescence values were plotted against time and data was expressed as relative fluorescent units per minutes×10^3. […]

cardiac myocytes = experiment: Fatty acid uptake in primary cardiac myocytes; type: cell-based, mouse
HepG2 cells = experiment: Fatty acid uptake in HepG2 cells; type: cell-based; details: HepG2 human hepatocellular carcinoma cell line
primary mouse adipocytes = experiment: Fluorescent fatty acid uptake assay in primary mouse adipocytes; type: cell-based
Procedure: Uptake of fatty acids by differentiated 3T3-L1 adipocytes or primary mouse adipocytes was assessed using a QBT Fatty Acid Uptake Kit (Molecular Devices). Cells were plated in triplicate in 96-well plates at a concentration of 25,000 cells per well in 100 μl of DMEM/10% FCS. Plates were centrifuged at 1000 rpm for 4 minutes and incubated at 37° Celsius for 4-5 hours. Cells were then serum deprived for 1 hour before treatment with recombinant proteins for 30 minutes followed by the addition of QBT Fatty Acid Uptake solution. In experiments using function-blocking antibodies, antibodies against mouse integrins αv (clone RMV-7) (Takahashi, K. et al., J Immunol 145, 4371-4379 (1990)) β3 (clone 2C9.G2; BD Biosciences) (Ashkar, S. et al., Science 287, 860-864 (2000)), β5 (clone ALULA) (Su, G. et al., American journal of respiratory cell and molecular biology 36, 377-386 (2007)), 131 (clone HA2/5; BD Biosciences, anti-rat with cross-reactivity with mouse (Zovein, A. C. et al., Developmental cell 18, 39-51 (2010)), CD36 (clone MF3; Abcam) (Helming, L. et al., Journal of cell science 122, 453-459 (2009)), human integrins αv (clone L230) (Thomas, G. J. et al., British journal of cancer 87, 859-867 (2002)), β3 (clone Axum-2) (Su, G. et al., Am J Respir Crit Care Med 185, 58-66 (2012)), β5 (clone ALULA), β1 (clone P5D2), cycloRGD and cycloRAD (BACHEM) were added to cells after serum deprivation and cells were incubated for 20 minutes at 4° Celsius prior to addition of recombinant proteins. Plates were incubated in a fluorescent plate reader at 37° Celsius and kinetic readings were acquired every 20 seconds for 30 minutes. Fluorescence values were plotted against time and data was expressed as relative fluorescent units per minutes×10^3.
Primary mouse adipocytes were obtained from epididymal fat pads by collagenase digestion in Krebs-HEPES (KRBH) buffer followed by filtering through a 100 μm strainer which was then washed with an additional 7.5 mL KRBH buffer. Adipocytes were allowed to float to the top of the mixture for 5 minutes, and the solution under the adipocyte layer was removed with a syringe. The adipocytes were washed with 10 mL KRBH and again allowed to float to the surface, at which point the solution was again removed. This process was repeated for a total of 3 washes. After the last aspiration, adipocytes were resuspended in 0.5-1.0 mL and counted.
Primary mouse adipocyte progenitors from the vascular stromal fraction were isolated and cultured as reported previously (Tseng et al., 2008). In brief, subcutaneous white adipose tissue was removed, minced and digested with 1 mg/ml collagenase for 45 min at 37° C. in DMEM/F12 medium containing 1% BSA and antibiotics. Digested tissues were filtered through sterile 150 μm nylon mesh and centrifuged at 250 g for 5 min. […]

B1: rMfge8: recombinant Milk Fat Globule Epidermal Growth Factor 8, an integrin ligand, expressed in High 5 cells (protein)
chain: ASGDFCDSSLCLNGGTCLTGQDNDIYCLCPEGFTGLVCNETERGPCSPNPCYNDAKCLVTLDTQRGDIFTEYICQCPVGYSGIHCETETNYYNLDGEYMFTTAVPNTAVPTPAPTPDLSNNLASRCSTQLGMEGGAIADSQISASSVYMGFMGLQRWGPELARLYRTGIVNAWTASNYDSKPWIQVNLLRKMRVSGVMTQGASRAGRAEYLKTFKVAYSLDGRKFEFIQDESGGDKEFLGNLDNNSLKVNMFNPTLEAQYIKLYPVSCHRGCTLRFELLGCELHGCSEPLGLKNNTIPDSQMSASSSYKTWNLRAFGWYPHLGRLDNQGKINAWTAQSNSAKEWLQVDLGTQRQVTGIITQGARDFGHIQYVASYKVAHSDDGVQWTVYEEQGSSKVFQGNLDNNSHKKNIFEKPFMARYVRVLPVSWHNRITLRLELLGC
- membrane expression of FATP1 (FATP1): increased
- PTEN activity (PTEN): modulates
- fatty acid uptake (BODIPY fatty acid analog) (3T3-L1 adipocytes): significantly increased
- fatty acid uptake in Mfge8−/− cardiac myocytes (cardiac myocytes): rescued
- fatty acid uptake in HepG2 cells (HepG2 cells): increased
- fatty acid uptake in CD36−/− adipocytes (primary mouse adipocytes; CD36−/− adipocytes): did not significantly increase
- fatty acid uptake in FATP1−/− adipocytes (primary mouse adipocytes; FATP1−/− adipocytes): did not significantly increase
- fatty acid uptake in Mfge8−/− adipocytes (primary mouse adipocytes; Mfge8−/− primary adipocytes and differentiated adipocyte progenitors): rescued
- WT fatty acid uptake (primary mouse adipocytes; WT adipocytes): significantly increased
